Laboratory results reported in article PMC7241785.

Molecular target: T1, GST-Flag-SASPase 28 kDa recombinant protein (human) (UniProt Q53RT3)
T1 sequence: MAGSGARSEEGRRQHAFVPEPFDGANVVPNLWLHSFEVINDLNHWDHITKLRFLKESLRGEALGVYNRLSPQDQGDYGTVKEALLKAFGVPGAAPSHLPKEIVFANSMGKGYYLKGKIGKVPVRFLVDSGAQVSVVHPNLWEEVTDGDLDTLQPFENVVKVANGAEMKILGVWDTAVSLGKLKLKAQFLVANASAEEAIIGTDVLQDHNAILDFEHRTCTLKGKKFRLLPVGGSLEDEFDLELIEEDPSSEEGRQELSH

B1: recombinant protein FLG2Nter (aa 2-213) (domain or fragment)
chain: TDLLRSVVTVIDVFYKYTKQDGECGTLSKGELKELLEKELHPVLKNPDDPDTVDVIMHMLDRDHDRRLDFTEFLLMIFKLTMACNKVLSKEYCKASGSKKHRRGHRHQEEESETEEDEEDTPGHKSGYRHSSWSEGEEHGYSSGHSRGTVKCRHGSNSRRLGRQGNLSSSGNQEGSQKRYHRSSCGHSWSGGKDRHGSSSVELRERINKSHI
  SASPase activity on Dabcyl-QIDRIMEK-Glu(Edans)-NH2 (0.1 mM), pH 5.5, 0.5 μM SASPase 28, FLG2Nter at ratios from 1.25 to 10; fold against the protease alone: 10 fold
